This data set can be described thus: label from the status in PepcDB records.

On to “MTLDTAAGHPTMDFADRCPLPYTSPTHLQAVAYLHGIVAADPDRARVLELGCMSGANLLPFATAYPQAQAVGIDLDEEKIAQGQMWVQQYGLTNLQLQAMDLGSLLDSDLGKFDYIIVHGVFGLISGEARSALLAYCHRHLSAKGVVCFSYSTYPGGKTEEILQDALNLHASLAETPEQQQASARAMLSYLSLGMSADNPQRAAITTLVEEAEKLGDVSLALNYLQGLNQPCYLLDFNALIAQEGLSYVGEIEPHTEIASHYGEQVDSLLRAICPTGNKVLKQQYLDFNVGRKRRFSLLVATERAGKLESEIDISRLDKLSWAGSFRRVMLNKGLASNAHVTNAGIQISTDHELTQQILDVLGNAWPASVSFKQLIFNTHFPEKENDKQEHENNIRESLYALLKQGISSIHFCVGECAYRKSEFSALRALPNCGDIYPTFNYWYESFTLPSEALGLKIPMSLLEEQKEGSLALLDELHHKGLMIGSALAWQRYFQKRLELAKDVNDVIHSINPLIMYSSNASGGGLFKASDVIKVEKSRKEFVNDPIDAKFKGQLYDLLQKQKYDEARSLAEELTVKQPNNLQNWIALERINFVTGDKDAAIFSLAKVISMHSNAWLVYSELASLLHNTYNYWEAINLAYRVIRCDGNIAVAWNVVALVYLKFENMAGAEVCIEKAMKLLPNDAAILNAMAMVLDKKSDVESAIEYYRQAVSNAPEDLSLYSNLLFALLHNAKIPASEIFAEHLLYGDVVEKRNGALAPVRYLQNKDPDRVLRIGFVSGDLYSHPVSKFLSPVWNDIDHQHFSLYAYSTSHHHDDVTRMLEKNSTVWRNVASSSDTELFDLIKRDEIDILFDLSGHTGDNRLSMFAMKPAPIQISWIGYPGTTGLKAMDYYLVMNHAPYPEVLAHQFTEKLLYVLFDRQFEPVVNGPEVNDLPALTNGYLTFASFNRPTKINDTVLSAWGKILVQLPTSKMIIGALPSLQTRDLIRKKLESQGVQPEQLIFRERVNIMNYLAMHQEIDVLLDTFPYTGGTTTNYALWMGVPTLTLAGETYAARQGVVNLGQAGLNEFIAHSEADYIDKAISCNNRLDELNQIRHSLRKKMEYDIDTSDATAATYFEQALRTVWKAYCDGQPPKSYSIGH”, for which the protein production entry is “failed”.

For “MTLETAFMLPVQDAQHSFRRLLKAMSEPGVIVALHQLKRGWQPLNIATTSVLLTLADNDTPVWLSTPLNNDIVNQSLRFHTNAPLVSQPEQATFAVTDEAISSEQLNALSTGTAVAPEAGATLILQVASLSGGRMLRLTGAGIAEERMIAPQLPECILHELTERPHPFPLGIDLILTCGERLLAIPRTTHVEVC”, the protein production result is given as “not failed”.

For “MTLFTLLLTLAWERLFKQGEHWQIDHRLEVIFRHVSPPSLFQTLFLTLCSMGVVAALLWLTSGILFGLISLLLWIVISLMCIGAGEIRQHYRRYLQAAQRGESDASREMAAELALIHGLPVGTSESEQLKELQNALLWINFRFYLAPLFWFVVAGPYGPVTLMGYAFLRARQTWLARHHTPLERAQSGVDSLLHWLDWIPARLAGAAYALLGHGEKALPAWFASLGDSRSSQYWVLTQLAQFSLARESHIEPVETPKAAVTLAKKVTLVLVVVVALLTIYGALV”, the protein production result is on record as “failed”.

As to “MTLHNEIKQLIIDCLDLEDVSIDDIETDAPLFGDGLGLDSIDALELGLAIKKKFDVKIEANSDSTKAHFYSVASLAKFIESQRP”, the protein production entry is reported as “failed”.

Turning to “MTLLWGLLSGMAVIGGLIGVVAGLVGTTAPRRAPLQQRWQALRAGKDQGEDVRLRRRTLAALAVVVFVAVWLVSGNFVGGALLGVAVVGVPWLISPAQMAQERIGQLEALSEWTQRLAGLLRLGMGLEQAMITSRQGAPDELAPQIVNLSDRLRLGWRPDGALRAFAEELNDVTADKVVAALILSVNDRGPGLAQALEDLAGTVRDEVAKKRAIEADRAKPRTTVRWMTVITVGVVVAGFFVPSYTKPYSTLLGQLVLAFLTVGFIGVLALMRQLGAFRRIPRFLITDPSSTVRLPLAGDGAGRAGRWP”, the protein production entry is reported as “failed”.

As for “MTLNITSKQMDITPAIREHLEERLAKLGKWQTQLISPHFVLNKVPNGFSVEASIGTPLGNLLASATSDDMYKAINEVEEKLERQLNKLQHKSESRRADERLKDSFEN”, the protein production entry is “not failed”.

“MTLPPYHTPLPAETLRALSIPAPWTFGLADRVRFGELDAIGHVNHTAYLRWYESFRLPFLKARHVTDYGPTSPRLVLKQVHCTYLAEMGMGEDYVITGRVSNFRTTSFTMEFACWRLGDAVECTSEGSAVVVLLNRDGSGRYPIPEAGRASFVTEDGVLAAG”: the protein production entry is “not failed”.
